In patent US20080064629A1, “Amphiregulin as a Protective Agent in Acute Hepatic Injury” (priority 2004, published 2008):

Legend:
Type in all cases: cell-based
[1] = test system: mouse hepatocytes in primary culture; assay: Apoptosis induced by actinomycin D and Jo2 antibody in mouse hepatocytes in primary culture
From the text: In order to determine whether the in vivo antiapoptotic effects of AR could be mediated by direct action of AR on liver parenchymal cells, the inventors used mouse hepatocytes in primary culture. It has been reported that hepatocytes exposed to Jo-2 antibodies undergo apoptosis effectively in presence of actinomycin D [(5), (6), (33) Ni, R., Tomita, Y., Matsuda, K., Ichiara, A., Ishimura, K., Ogasawara, J., Nagata, S. 1994. Fas-mediated apoptosis in primary cultured mouse hepatocytes. Exp. Cell Res. 215: 332-337]. Hepatocytes were pretreated with different concentrations of AR during […] before addition of actinomycin D and Jo2 antibody. Measurements of apoptosis and related molecular events, were made 18 h later. […] Likewise, they found antiapoptotic protein Bcl-xL to be induced by treatment with AR in mouse hepatocytes treated with Jo2 (FIG. 4B). In order to identify the AR antiapoptotic signaling mechanisms, PI-3K/Akt and ERK1/2 pathways were studied, as they are general mediators of cell survival [(4), (6)]. […] A key signaling molecule implicated in protection against liver damage induced by Fas is STAT3 [(34) Shen, Y., Devgan, G., Darnell, J. E., Bromberg, J. F. 2001. Constitutively activated Stat3 protects fibroblasts from serum withdrawal and UV-induced apoptosis and antagonizes the proapoptotic effects of activated Statl. Proc. Natl. Acad. Sci. USA. 98: 1543-1548. (35) Haga, S., Terui, K., Zhang, H. Q., Enosawa, S., Ogawa, W., Inoue, H., Okuyama, T., Takeda, K., Akira, S., Ogino, T., et al. 2003. Stat3 protects against Fas-induced liver injury by redox-dependent and -independent mechanisms. J. Clin. Invest. 112: 989-998].
(§1) Hepatocytes were isolated from male Wistar rats (150 g) and C57/BL6 mice (20 g) by perfusion with collagenase (Gibco-BRL, Paisley, UK) as described elsewhere [(18), (20)]. Cells (5×10^5 cells per well) were plated onto 6-well plates coated with collagen (type I collagen, Collaborative Biomedical, Bedford, Mass., USA). Cultures were maintained in MEM medium supplemented with 10% fetal calf serum (FCS), non-essential amino acids, glutamine 2 mM and antibiotics (all supplied by Gibco-BRL). After 2 h of incubation, the medium was removed and cells were again cultured in the same medium with 5% FCS. Where applicable, hepatocytes were treated with IL-1β or TNFα from Roche (Mannheim, Germany), HGF or forskolin from Calbiochem (San Diego, Calif., USA), IL6 from RD Systems (Wiesbaden-Nordenstadt, Germany), or PGE2 from Alexis QBiogene (Carlsbad, Calif., USA).
Apoptosis was induced in cultured mouse hepatocytes by treatment with 0.5 μg/ml of Jo2 antibody and 0.05 μg/ml of actinomycin D as described elsewhere (5). Where applicable, the hepatocytes were treated with AR 6 h before the addition of Jo2 antibody and actinomycin D. Apoptosis was estimated by determining soluble histone-DNA complexes using the Cell Death Detection Assay (Roche). ELISA tests for determining cell death were carried out following the manufacturer's instructions. The specific enrichment of mono- and oligonucleosomes released in the cytoplasm (enrichment factor, EF) was calculated as the ratio between the absorbance values of the samples corresponding to treated cells and control cells. […]
Caspase-3 activity in mouse hepatocytes and liver tissue lysates was assessed using the Caspase-3/CPP32 colorimetric assay kit (BioVision, Palo Alto, Calif., USA). […]

hepatocytes = assay: Apoptosis induced by other agents (TNFα plus galactosamine, okadaic acid, TGFβ) in hepatocytes; conditions: okadaic acid and TGFβ, data not shown
[2] = test system: cultured mouse hepatocytes; assay: Antiapoptotic signaling pathways (Western blot of phosphorylation) in cultured mouse hepatocytes; conditions: AR 20 nM, different times
Procedure: as §1
(§2) Homogenates from liver samples and isolated hepatocytes were subjected to Western blot analysis as described elsewhere [(19, (20)]. Antibodies used were: affinity purified and biotinylated polyclonal antibody specifically targeted to murine AR (BAF989)(RD Systems); specific antibodies for the p17 subunit of active caspase-3 (9664S), phosphorylated Akt (Ser473) (9271S) and phosphorylated STAT3 (Tyr^705) (9131S) (Cell Signaling, Beverly, Mass., USA); ERK1/2 (06-182), phosphorylated EGF-R (Tyr^1173)(05-483) and STAT3 (06-596)(Upstate Biotechnology, Charlottesville, Va., USA). All other antibodies were from Santa Cruz Biotechnology (Santa Cruz, Calif., USA): BclxL (sc8392), Bcl2 (sc7382), EGF-R (sc-03), phosphorylated ERK1/2 (Tyr^204) (sc7383), Akt (sc5298), JNK (sc571), and phosphorylated JNK (Thr^183/Tyr^185) (sc6254).

cultured rat hepatocytes = assay: EGF-R and proliferation signaling pathways (Western blot of phosphorylation) in cultured rat hepatocytes
Procedure: as §1, §2

isolated rat hepatocytes = assay: TGFα and CT-1 gene expression in cultured rat hepatocytes treated with AR; conditions: AR treatment, different periods of time
Procedure: as §1, with “Where applicable, hepatocytes were treated with IL-1β or TNFα from Roche (Mannheim, Germany), HGF or forskolin from Calbiochem (San Diego, Calif., USA), IL6 from RD Systems (Wiesbaden-Nordenstadt, Germany), or PGE2 from Alexis QBiogene (Carlsbad, Calif., USA).” left out
Total RNA was extracted using TRI reagent (Sigma). […] PCR products were subjected to electrophoresis in 2% agarose gels, followed by staining with ethidium bromide and quantification using Molecular Analyst software (Bio-Rad, Hercules, Calif., USA). […]
Real time PCR was performed using an iCycler (BioRad) and iQ SYBR Green Supermix (Bio-Rad). In order to monitor the specificity of final PCR products, the latter were analysed by fusion curves and electrophoresis. The amount of each transcript was expressed as n-fold the difference versus expression of the reference gene (β-actin)(2^ΔCt, where ΔCt represents the difference in threshold cycle between target genes and control gene).

[3] = rat hepatocytes, different times after addition of AR

B1: amphiregulin (protein)
chain: SVRVEQVVKPPQNKTESENTSDKPKRKKKGGKNGKNRRNRKKKNPCNAEFQNFCIHGECKYIEHLEAVTCKCQQEYFGERCGEKSMKTHSMIDSSLSK
notes: polypeptide growth factor belonging to the EGF family, ligand of EGF receptor; human recombinant AR (Sigma) used
- antiapoptotic protein Bcl-xL (Western blot) ([1]; AR 20 nM, mouse hepatocytes treated with Jo2): induced
- proteolysis and activation of caspase-3 induced by Jo2 antibody ([1]; AR 20 nM, mouse hepatocytes treated with actinomycin D and Jo2): significantly inhibited
- apoptosis (enrichment factor of mono- and oligonucleosomes) ([1]; increasing concentrations of AR before actinomycin D and Jo2, measured 18 h later): protected from apoptosis by AR in a dose-dependent manner
- cytoprotective activity against apoptosis induced by other agents (hepatocytes): cytoprotective activity was also seen
- phosphorylation of Akt [2]: increased phosphorylation
- phosphorylation of ERK1/2 [2]: increased phosphorylation
- phosphorylation of STAT3 [2]: stimulate phosphorylation
- phosphorylation of EGF-R on tyrosine residues (cultured rat hepatocytes; isolated rat hepatocytes treated with AR): rapid and transient phosphorylation
- JNK phosphorylation (cultured rat hepatocytes; [3]): observed JNK phosphorylation
- phosphorylation of Akt (cultured rat hepatocytes; [3]): rapidly induces phosphorylation
- phosphorylation of ERK1/2 (cultured rat hepatocytes; [3]): rapidly induces phosphorylation
- levels of mRNA encoding CT-1 (isolated rat hepatocytes): increased
- levels of mRNA encoding TGFα (isolated rat hepatocytes): increased
